# Assay: soluble on expression in E. coli; label from the status in PepcDB or PDB records
row,Sequence,soluble on expression in E. coli
1,MQDDPSTSPLTHSATLRRLLYEALDALGLDPTRVYRSVYRRIPLPPPTLGGRLVHDNAPLFWTELAAVTGDADIGLHLGEAMKPRLLDVVGYLLLSARDLEEALRSFVRFQHILSGGFAARLEVEGETARLILDINYLGYASLRQQIECLMLLFLKLLALISDDEFVAERIEFRHRAPPRLGEHRRLFGRLPLFSRPHDALVFSAALLRRPSRNANPDMHDVLTRHAEEQSRELSENRLLNRVRYLIELRLGEGYGLRQCAAELGLGSGALQRALAAGGASFRQVRDEVRRQRASEMLLAGRAIREVAKACGFAELSPFYRAFRRWHAAPPEQYRARLAKREEGYSTSGT,not soluble
2,MAHHHHHHMAQASGCELMDFVSVLPVPPQTERRRGVLRFVGSTDFAPGLWMGIELFGTIGRNDGSVMGKSYFSCPAGQGVFVRPELVVPYMSEGEGPSGTVRKGDEFLAVVEPLRADLTRMQEELQQREAALRDAREELRNVMALHDAKSVELEREREEKSRMIMLTMTACRNNVTATTQTDEDKAVEVKDLEIHRLQQQCADLRDLCELQEDEIHRQREHADDLAQIVENLRREHEEERVRMVEKIRSLEEEITQRQKATAEDSAKADVEDMHLHAFQQQQEKEALRILKERYEQLYAERESERHEQEAKWKRATAEYEEALTQQREYKNRLLNEIRQLQHEIKDMRHSRERERVLQVPLSTLERDEYESQIYGLQWELMGVHEEMFSKRYDHFLAPVSSWNLPADVMRALSEEIMSLERVLPFTTPEKCQQSRMVLFQMHPRDAEGGTIAAAPL,not soluble
3,MATSGFKHLVVVKFKEDTKVDEILKGLENLVSQIDTVKSFEWGEDKESHDMLRQGFTHAFSMTFENKDGYVAFTSHPLHVEFSAAFTAVIDKIVLLDFPVAAVKSSVVATP,soluble
4,MLPSRKRLVLEQLGKTLSRFAGLQAVSPPARGWIRAIREALGMSGVQFAARLGVTPPRVTALERDELSGAVTMKTMRQAAEALDCVFLYALVPRTSLEETIRRQAEAVARERLLRVSHTMMLESQQLSEEEMKQALDAAVEELVRTMPKDLWSKAP,not soluble
5,MTIKEMPQPKTFGELKNLPLLNTDKPVQALMKIADELGEIFKFEAPGRVTRYLSSQRLIKEACDESRFDKNLSQALKFVRDFAGDGLFTSWTHEKNWKKAHNILLPSFSQQAMKGYHAMMVDIAVQLVQKWERLNADEHIEVPEDMTRLTLDTIGLCGFNYRFNSFYRDQPHPFITSMVRALDEAMNKLQRANPDDPAYDENKRQFQEDIKVMNDLVDKIIADRKASGEQSDDLLTHMLNGKDPETGEPLDDENIRYQIITFLIAGHETTSGLLSFALYFLVKNPHVLQKAAEEAARVLVDPVPSYKQVKQLKYVGMVLNEALRLWPTAPAFSLYAKEDTVLGGEYPLEKGDELMVLIPQLHRDKTIWGDDVEEFRPERFENPSAIPQHAFKPFGNGQRACPGQQFALHEATLVLGMMLKHFDFEDHTNYELDIKETLTLKPEGFVVKAKSKKIPLGGIPSPSTEQSAKKVRKKAENAHNTP,soluble
6,MDTIININNNNQKYPQSAEEYHKVLCNYFITLQSAMQSTSRPSSSSPPSLPAVSSELLSSSFPTNAPESSSRDLAPKQNQFTINVVLFDEKKKKNPEENLPANGDQLATLRSLMMQINPSSPPSIPATSPQLPLAESENVPESSSTLKDHKFSLNTMLFNVKKNDAVKISLANQEQWAKFHEIGTEMMVFNSGRRLFPLLAYKVSGLDPHKLYCAGVHMIPDSAYKQEYDHDLQQWVNCLNQKKTIFKPTSEILGRIENGFKLMSLGIDMSDVKIFNIAIRKKTPLQIEKSRKPNLDKTIEVLIQYKYLPVIKIYELSNSGMEKKEIAQATFPETSFVTVSIYRNQKIKEMKTLGNKYCRTDRKQIVMEQRGELEQ,not soluble
7,MGSDKIHHHHHHVLQLESIGVMDNYNKDLTPDQASAFLEVVDASLRIKKKAQLFSWLQGHFQFLLPHEVLLCGFAVGVGRNFSLETFSSTRYVTDAQVAIAMHERTGVVMKAIQAWRQTSQPVLIDPYLKDGNFGRFTVPKIDQVNLQESELRNIAAYGLSSADGSISSFFSFSRISGELNASHAYMLELLVPYLHSVLMRVSDGVFNFGDAMGEGVNAGIITPREKEILQWVHTGKSNWEIATILEISPLTVKNHMQNILRKLDVQNRSHAAAKAYRLGLIRH,not soluble
